From IntAct's records for PubMed 18303947

B1: NMDA receptor synaptonuclear signaling and neuronal migration factor (Mus musculus), Q99NF2-1 (parent)
chain: MGAAASRRRALRSEAMSSVAAKVRAARAFGEYLSQSHPENRNGADHLLADAYSGHDGSPEMQPAPQNKRRLSLVSNGRYEGSISDEAVSGKPAIEGPQPHVYTISREPALLPGSEAEAIELAVVKGRRQRERHPHHHSQPLRASPGSSREDISRPCQSWAGSRQGSKECPGCAQLVPGPSSRAFGLEQPPLPEAPGRHKKLERMYSVDGVSDDVPIRTWFPKENLFSFQTATTTMQAISVFRGYAERKRRKRENDSASVIQRNFRKHLRMVGSRRVKAQTFAERRERSFSRSWSDPTPMKADTSHDSRDSSDLQSSHCTLDEACEDLDWDTEKGLEAMACNTEGFLPPKVMLISSKVPKAEYIPTIIRRDDPSIIPILYDHEHATFEDILEEIEKKLNIYHKGAKIWKMLIFCQGGPGHLYLLKNKVATFAKVEKEEDMIHFWKRLSRLMSKVNPEPNVIHIMGCYILGNPNGEKLFQNLRTLMTPYKVTFESPLELSAQGKQMIETYFDFRLYRLWKSRQHSKLLDFDDVL

Variants of: B1
Settings: with Cabp1, O88751-1
Sequence of Cabp1, O88751-1 (O88751 whole entry): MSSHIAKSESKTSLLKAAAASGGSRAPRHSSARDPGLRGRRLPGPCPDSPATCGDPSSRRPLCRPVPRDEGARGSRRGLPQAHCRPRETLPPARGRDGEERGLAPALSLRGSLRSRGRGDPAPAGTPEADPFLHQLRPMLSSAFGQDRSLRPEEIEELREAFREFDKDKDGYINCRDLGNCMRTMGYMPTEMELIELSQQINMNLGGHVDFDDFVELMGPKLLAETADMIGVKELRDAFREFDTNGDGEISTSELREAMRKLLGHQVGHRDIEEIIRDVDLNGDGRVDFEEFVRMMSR

Row | effect of a mutation on the interaction | Variant
1 | disrupting interaction | F241E
